{"source": "patent US20060286611A1", "about": "“Antibodies against biotinylated histones and related proteins and assays related thereto” (Board of Regents of University of Nebraska, priority 2005, published 2006)", "note": "“Also recorded” adds a separate entry of the source. No end group written: not given here. Me2 = dimethyl-lysine (dimethyl-epsilon-NH2-L-lysine)", "data": [{"target": "T1, biotinidase (Homo sapiens, UniProt P43251)", "T1 construct": "60 μL of human plasma; from tissue; host or cells: human plasma", "T1 sequence (P43251 22-523)": "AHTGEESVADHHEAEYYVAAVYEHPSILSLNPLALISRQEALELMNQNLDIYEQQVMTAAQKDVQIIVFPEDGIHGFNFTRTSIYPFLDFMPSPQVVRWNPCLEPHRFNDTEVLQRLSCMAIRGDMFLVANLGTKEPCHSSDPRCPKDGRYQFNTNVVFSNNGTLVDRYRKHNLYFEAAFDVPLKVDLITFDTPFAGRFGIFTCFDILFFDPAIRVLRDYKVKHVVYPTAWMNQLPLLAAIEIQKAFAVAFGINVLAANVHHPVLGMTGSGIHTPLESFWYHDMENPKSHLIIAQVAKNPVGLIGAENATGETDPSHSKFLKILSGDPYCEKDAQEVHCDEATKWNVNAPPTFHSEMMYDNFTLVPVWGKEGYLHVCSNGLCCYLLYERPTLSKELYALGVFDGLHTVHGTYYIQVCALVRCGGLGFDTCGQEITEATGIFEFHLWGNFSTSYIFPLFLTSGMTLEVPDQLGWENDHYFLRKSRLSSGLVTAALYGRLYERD", "experiment": "Enzymatic biotinylation of synthetic histone H3 peptides by biotinidase", "assay_type": "biochemical", "conditions": "biotinidase and biocytin, 45 min", "values": [{"molecule": "NCCC[C@H](N)C(=O)O", "note": "[ornithine]", "enzymatic biotinylation by biotinidase, peptide-bound biotin probed with streptavidin-peroxidase": "not biotinylated"}, {"molecule": "K4,9A1-9: histone H3 amino acids 1 to 9, K4 and K9 substituted by alanine (ARTAQTARA)", "enzymatic biotinylation by biotinidase, peptide-bound biotin probed with streptavidin-peroxidase": "no binding of biotin was detectable"}, {"molecule": "K4A1-9: histone H3 amino acids 1 to 9, K4 substituted with alanine (ARTAQTARK) [Peptide K4A1-9]", "enzymatic biotinylation by biotinidase, peptide-bound biotin probed with streptavidin-peroxidase": "barely detectable"}, {"molecule": "K9,14A9-16: histone H3 amino acids 9 to 16, K9 and K14 substituted with alanine (ASTGGAAP)", "enzymatic biotinylation by biotinidase, peptide-bound biotin probed with streptavidin-peroxidase": "no binding of biotin was detectable"}, {"molecule": "K9A9-16: histone H3 amino acids 9 to 16, K9 substituted with alanine (ASTGGKAP) [Peptide K9A9-16]", "enzymatic biotinylation by biotinidase, peptide-bound biotin probed with streptavidin-peroxidase": "poor target for biotinylation"}, {"molecule": "K14A9-16: histone H3 amino acids 9 to 16, K14 substituted with alanine (KSTGGAAP) [Peptide K14A9-16]", "enzymatic biotinylation by biotinidase, peptide-bound biotin probed with streptavidin-peroxidase": "heavily biotinylated"}, {"molecule": "K18,23A16-23: histone H3 amino acids 16 to 23, K18 and K23 substituted with alanine (PRAQLATA)", "enzymatic biotinylation by biotinidase, peptide-bound biotin probed with streptavidin-peroxidase": "no binding of biotin was detectable"}, {"molecule": "K18,23A18-25: histone H3 amino acids 18-25, K18 and K23 substituted with alanine (AQLATAAA)", "enzymatic biotinylation by biotinidase, peptide-bound biotin probed with streptavidin-peroxidase": "No biotinylation was detected"}, {"molecule": "K18A16-23: histone H3 amino acids 16 to 23, K18 substituted with alanine (PRAQLATK) [Peptide K18A16-23]", "enzymatic biotinylation by biotinidase, peptide-bound biotin probed with streptavidin-peroxidase": "weak"}, {"molecule": "K18A18-25: histone H3 amino acids 18-25, K18 substituted with alanine (AQLATKAA) [Peptide K18A18-25]", "enzymatic biotinylation by biotinidase, peptide-bound biotin probed with streptavidin-peroxidase": "barely detectable"}, {"molecule": "K23A16-23: histone H3 amino acids 16 to 23, K23 substituted with alanine (PRKQLATA) [Peptide K23A16-23]", "enzymatic biotinylation by biotinidase, peptide-bound biotin probed with streptavidin-peroxidase": "weak"}, {"molecule": "K23A18-25: histone H3 amino acids 18-25, K23 substituted with alanine (KQLATAAA) [Peptide K23A18-25]", "enzymatic biotinylation by biotinidase, peptide-bound biotin probed with streptavidin-peroxidase": "heavily biotinylated"}, {"molecule": "N9-16: histone H3 amino acids 9-16, including K9 and K14 (KSTGGKAP; UniProt P68431 10-17, looked up, fragment) [Peptide N9-16]", "enzymatic biotinylation by biotinidase, peptide-bound biotin probed with streptavidin-peroxidase": "relatively poor targets for biotinylation"}]}, {"target": "T1, biotinidase", "experiment": "Enzymatic biotinylation of synthetic histone H2A and H2A.X peptides by biotinidase", "assay_type": "biochemical", "conditions": "human plasma as source of biotinidase, 75 μmol/L biocytin, pH 8.0, 37° C., up to 45 minutes", "source_text": "In Examples described above, the inventors developed a procedure to identify amino acid residues in histones that are targets for biotinylation. […] Amino acid substitutions (e.g., lysine-to-alanine substitutions) in synthetic peptides are used to corroborate identification of biotinylation sites. In addition, amino acid modifications (e.g., acetylation of lysines) in peptides can be used to investigate the cross-talk between biotinylation of histones and other known modifications of histones.\nPeptides from both the N- and C-terminal regions of histone H2A and H2A.X were included in the analysis of biotinylation sites. […] Reactions were quenched by adding an equal volume of Tricine gel loading buffer (Invitrogen, Carlsbad, Calif.).", "values": [{"molecule": "SEQ ID NO:73: histone H2A N1-9 with acetylation of K5 (SGRGK(Ac)TGGK)", "enzymatic biotinylation by biotinidase, peptide-bound biotin probed with streptavidin peroxidase": "moderate decrease"}, {"molecule": "SEQ ID NO:74: histone H2A peptide containing acetylated K9 and free K5 (SGRGKTGGK(Ac))", "enzymatic biotinylation by biotinidase, peptide-bound biotin probed with streptavidin peroxidase": "not a target for biotinylation"}, {"molecule": "SEQ ID NO:75: histone H2A N7-14 with dimethylation of K13 (GGKARAK(Me2)A)", "enzymatic biotinylation by biotinidase, peptide-bound biotin probed with streptavidin peroxidase": "decreased the biotinylation of K9"}, {"molecule": "SEQ ID NO:76: histone H2A N7-14 with acetylation of K13 (GGKARAK(Ac)A)", "enzymatic biotinylation by biotinidase, peptide-bound biotin probed with streptavidin peroxidase": "decreased the biotinylation of K9"}, {"molecule": "SGRGKTGGK [Peptide Q6T1-9, N-terminus of histone H2A.X, amino acids 1-9]", "enzymatic biotinylation by biotinidase, peptide-bound biotin probed with streptavidin peroxidase": "good targets for biotinylation"}, {"molecule": "SHHKAKGK [Peptide C122-129, histone H2A amino acids 122-129]", "enzymatic biotinylation by biotinidase, peptide-bound biotin probed with streptavidin peroxidase": "good target for biotinylation; also recorded: good substrate for biotinylation"}]}]}
